The Immune Epitope Database (IEDB)

Columns and labels:
[1] = biological target: HLA-A*03:01; experiment: IEDB peptide-MHC binding, purified MHC/competitive/fluorescence; filed as Kd, often an IC50 or EC50 that approximates it; ≥ and ≤ were set here for values at or beyond the usual limits of such assays
[2] = biological target: HLA-A*01:01; experiment: as above
[3] = biological target: HLA-B*15:42; experiment: as above; settings: source organism: Yersinia pseudotuberculosis IP 31758
[4] = biological target: HLA-B*15:01; experiment: as above; settings: source organism: Yersinia pseudotuberculosis IP 31758
[5] = biological target: HLA-B*45:06; experiment: as above; settings: source organism: Yersinia pseudotuberculosis IP 31758
[6] = biological target: HLA-B*58:01; experiment: as above; settings: source organism: Yersinia pseudotuberculosis IP 31758
[7] = biological target: HLA-A*68:23; experiment: as above; settings: source organism: Yersinia pseudotuberculosis IP 31758
[8] = biological target: HLA-B*83:01; experiment: as above; settings: source organism: Yersinia pseudotuberculosis IP 31758
[9] = biological target: HLA-C*04:01; experiment: as above; settings: source organism: Yersinia pseudotuberculosis IP 31758
[10] = biological target: HLA-B*27:05; experiment: IEDB peptide-MHC binding, purified MHC/competitive/radioactivity; ≥ and ≤ were set here for values at or beyond the usual limits of such assays; settings: source organism: Human papillomavirus 16
[11] = biological target: HLA-A*02:05; experiment: IEDB peptide-MHC binding, purified MHC/competitive/radioactivity; filed as Kd, often an IC50 or EC50 that approximates it; ≥ and ≤ were set here for values at or beyond the usual limits of such assays; settings: source organism: Hepatitis C virus (isolate Taiwan)
[12] = biological target: HLA-A*02:07; experiment: as above; settings: source organism: Hepatitis C virus (isolate Taiwan)
[13] = biological target: HLA-A*24:02; experiment: IEDB peptide-MHC binding, purified MHC/competitive/radioactivity; ≥ and ≤ were set here for values at or beyond the usual limits of such assays; settings: source organism: Homo sapiens
[14] = biological target: HLA-A*31:01; experiment: IEDB peptide-MHC binding, purified MHC/competitive/fluorescence; filed as Kd, often an IC50 or EC50 that approximates it; ≥ and ≤ were set here for values at or beyond the usual limits of such assays; settings: source organism: Human immunodeficiency virus 1
[15] = biological target: HLA-A*30:01; experiment: as above; settings: source organism: Human immunodeficiency virus 1
[16] = biological target: HLA-A*68:02; experiment: as above; settings: source organism: Human immunodeficiency virus 1
[17] = biological target: HLA-A*26:02; experiment: as above; settings: source organism: Human immunodeficiency virus 1
[18] = biological target: HLA-A*26:03; experiment: as above; settings: source organism: Human immunodeficiency virus 1
[19] = biological target: HLA-A*02:06; experiment: as above; settings: source organism: Human immunodeficiency virus 1
[20] = biological target: HLA-A*02:03; experiment: as above; settings: source organism: Human immunodeficiency virus 1
[21] = biological target: HLA-A*02:01; experiment: as above; settings: source organism: Human immunodeficiency virus 1
[22] = biological target: HLA-A*11:01; experiment: as above; settings: source organism: Human immunodeficiency virus 1
[23] = biological target: HLA-B*15:17; experiment: as above; settings: source organism: Human immunodeficiency virus 1
[24] = biological target: HLA-A*69:01; experiment: as above; settings: source organism: Human immunodeficiency virus 1
[25] = biological target: HLA-B*08:02; experiment: as above; settings: source organism: Human immunodeficiency virus 1
[26] = biological target: HLA-B*40:02; experiment: IEDB peptide-MHC binding, cellular MHC/competitive/fluorescence; ≥ and ≤ were set here for values at or beyond the usual limits of such assays; settings: source organism: Homo sapiens
[27] = biological target: HLA-B*07:02; experiment: IEDB peptide-MHC binding, purified MHC/competitive/radioactivity; filed as Kd, often an IC50 or EC50 that approximates it; ≥ and ≤ were set here for values at or beyond the usual limits of such assays; settings: source organism: Hepatitis C virus (isolate 1)
[28] = biological target: HLA-A*31:01; experiment: as above; settings: source organism: Hepatitis C virus (isolate 1)
[29] = biological target: HLA-A*03:01; experiment: as above; settings: source organism: Hepatitis C virus (isolate 1)
[30] = biological target: HLA-B*44:02; experiment: as above; settings: source organism: Hepatitis C virus (isolate 1)
[31] = biological target: HLA-B*18:01; experiment: as above; settings: source organism: Hepatitis C virus (isolate 1)
[32] = biological target: HLA-B*35:01; experiment: as above; settings: source organism: Hepatitis C virus (isolate 1)
[33] = biological target: HLA-B*08:01; experiment: as above; settings: source organism: Hepatitis C virus (isolate 1)
[34] = biological target: HLA-B*44:03; experiment: as above; settings: source organism: Hepatitis C virus (isolate 1)
[35] = biological target: HLA-A*01:01; experiment: as above; settings: source organism: Hepatitis C virus (isolate 1)
[36] = biological target: HLA-A*68:02; experiment: as above; settings: source organism: Hepatitis C virus (isolate 1)
[37] = biological target: HLA-B*54:01; experiment: as above; settings: source organism: Hepatitis C virus (isolate 1)
[38] = biological target: HLA-A*02:02; experiment: as above; settings: source organism: Hepatitis C virus (isolate 1)
[39] = biological target: HLA-A*68:01; experiment: as above; settings: source organism: Hepatitis C virus (isolate 1)
[40] = biological target: HLA-A*02:06; experiment: as above; settings: source organism: Hepatitis C virus (isolate 1)
[41] = biological target: HLA-B*51:01; experiment: as above; settings: source organism: Hepatitis C virus (isolate 1)
[42] = biological target: HLA-A*02:03; experiment: as above; settings: source organism: Hepatitis C virus (isolate 1)
[43] = biological target: HLA-A*11:01; experiment: as above; settings: source organism: Hepatitis C virus (isolate 1)
[44] = biological target: HLA-B*40:01; experiment: as above; settings: source organism: Hepatitis C virus (isolate 1)
[45] = biological target: HLA-B*40:02; experiment: as above; settings: source organism: Hepatitis C virus (isolate 1)
[46] = biological target: HLA-A*33:01; experiment: as above; settings: source organism: Hepatitis C virus (isolate 1)
[47] = biological target: HLA-B*53:01; experiment: as above; settings: source organism: Hepatitis C virus (isolate 1)
[48] = biological target: HLA-A*02:02; experiment: IEDB peptide-MHC binding, purified MHC/competitive/radioactivity; ≥ and ≤ were set here for values at or beyond the usual limits of such assays; settings: source organism: Hepatitis C virus (isolate H77)
[49] = biological target: HLA-A*02:06; experiment: as above; settings: source organism: Hepatitis C virus (isolate H77)
[50] = biological target: HLA-A*02:03; experiment: as above; settings: source organism: Hepatitis C virus (isolate H77)
[51] = source organism: Yersinia pseudotuberculosis IP 31758
[52] = source organism: Human immunodeficiency virus 1

Q: How did the Kd [1, 51] turn out when RQIRMTSTI was run?
A: ≥ 20000 nM

Q: What about the Kd [2, 51] of the same sequence?
A: 3000 nM

Q: And the Kd [3]?
A: ≥ 5000 nM

Q: And the Kd [4]?
A: 163 nM

Q: And the Kd [5]?
A: ≥ 5000 nM

Q: What about the Kd [6] of the same sequence?
A: 617 nM

Q: What about the Kd [7] of the same sequence?
A: 427 nM

Q: What about the Kd [8] of the same sequence?
A: ≥ 5000 nM

Q: What about the Kd [9] of the same sequence?
A: ≥ 5000 nM

Q: For YRHYCYSL, which IC50 [10] is on record?
A: 12 nM

Q: With YLVAYQATV as the sequence, how does the Kd [11] read?
A: 8.5 nM

Q: And the Kd [12]?
A: 2300 nM

Q: Which IC50 [13] does the source give for KYAGESFPGI here?
A: 838 nM

Q: For VLYCVHQEI, which Kd [14] is on record?
A: ≥ 20000 nM

Q: What about the Kd [1, 52] of the same sequence?
A: ≥ 20000 nM

Q: And the Kd [2, 52]?
A: ≥ 20000 nM

Q: What about the Kd [15] of the same sequence?
A: 12300 nM

Q: And the Kd [16]?
A: 233 nM

Q: And the Kd [17]?
A: ≥ 20000 nM

Q: And the Kd [18]?
A: ≥ 20000 nM

Q: And the Kd [19]?
A: 4.05 nM

Q: What about the Kd [20] of the same sequence?
A: 8.8 nM

Q: What about the Kd [21] of the same sequence?
A: 7 nM

Q: And the Kd [22]?
A: ≥ 20000 nM

Q: And the Kd [23]?
A: 345 nM

Q: What about the Kd [24] of the same sequence?
A: 824 nM

Q: And the Kd [25]?
A: ≥ 20000 nM

Q: How did the IC50 [26] turn out when KEHSLQVSP was run?
A: 1900 nM

Q: For KLVALGINAV, which Kd [27] is on record?
A: 2170 nM

Q: What about the Kd [28] of the same sequence?
A: 13600 nM

Q: And the Kd [29]?
A: 16600 nM

Q: And the Kd [30]?
A: ≥ 70200 nM

Q: And the Kd [31]?
A: ≥ 70500 nM

Q: And the Kd [32]?
A: ≥ 69900 nM

Q: What about the Kd [33] of the same sequence?
A: ≥ 70000 nM

Q: What about the Kd [34] of the same sequence?
A: ≥ 70100 nM

Q: And the Kd [35]?
A: 9010 nM

Q: What about the Kd [36] of the same sequence?
A: 12800 nM

Q: What about the Kd [37] of the same sequence?
A: 19200 nM

Q: What about the Kd [38] of the same sequence?
A: 82.7 nM

Q: And the Kd [39]?
A: ≥ 70200 nM

Q: What about the Kd [40] of the same sequence?
A: 3.94 nM

Q: And the Kd [41]?
A: ≥ 47000 nM

Q: What about the Kd [42] of the same sequence?
A: 11.1 nM

Q: And the Kd [43]?
A: ≥ 69800 nM

Q: And the Kd [44]?
A: ≥ 69600 nM

Q: And the Kd [45]?
A: ≥ 70800 nM

Q: And the Kd [46]?
A: ≥ 70000 nM

Q: And the Kd [47]?
A: ≥ 69900 nM

Q: What about the IC50 [48] of the same sequence?
A: 15 nM

Q: And the IC50 [49]?
A: 3.7 nM

Q: And the IC50 [50]?
A: 75 nM
